Laboratory results: patent publication US20140086916A1 (Merck Sharp & Dohme, published 2014)
Like-named read-outs stand apart in the source and are kept apart here.

T1: FcγRIIb (Pichia pastoris produced) (UniProt P31994 43-217, limits assumed)
T1 construct: also called FcgRIIB; CD32B
T1 sequence (looked up): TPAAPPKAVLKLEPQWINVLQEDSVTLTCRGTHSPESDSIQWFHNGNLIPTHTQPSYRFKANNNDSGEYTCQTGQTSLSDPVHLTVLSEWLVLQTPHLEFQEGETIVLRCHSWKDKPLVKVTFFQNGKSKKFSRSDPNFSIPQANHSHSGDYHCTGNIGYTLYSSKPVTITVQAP


Columns and labels:
[1] = target: T1, FcγRIIb (Pichia pastoris produced); test: ELISA-type plate assay, FcγR coated, antibody dimerized with AP-conjugated goat anti-human IgG F(ab')2, RFU readout
Protocol: (§1) Fcγ receptor binding assays were carried out as described (Shields, et al. (2001) J. Biol. Chem. 276:6591-6604) with minor modifications. High protein binding 96-well plates (Corning Costar) were coated with 100 μL per well of Fcγ receptor solutions in PBS at the following concentrations: 1 μg/mL for both FcγRI (R&D Systems) and FcγRIIa (Pichia pastoris produced), 2 μg/mL for FcγRIIb (P. pastoris produced), 0.8 μg/mL for FcγRIIIa-F158, and 0.4 μg/mL for FcγRIIIa-V158 (both P. pastoris produced). All Pichia pastoris produced receptors were expressed and purified as described (Li, et al. (2006) Nature Biotechnology 24:210-215). Monomeric antibody samples added to the FcγRI plate were serially diluted in assay diluent (1×PBS, 1% BSA, and 0.05% Tween20) and 100 μL, per well was added to the plate. Antibody samples prepared for the remaining receptors require a one hour dimerization step with half molar ratio of goat anti-human IgG F(ab′)2 F(ab′)2 that is conjugated with alkaline phosphatase for detection. These dimerized F(ab′)2/antibody complexes were also serially diluted and 100 μL per well were added to the remaining receptor plates and all plates were incubated for one hour at room temperature. FcγRI bound sample antibody was detected using the same goat anti-human IgG F(ab′)2 alkaline phosphatase conjugated F(ab′)2. Sample antibody binding was quantified by measuring excitation at 340 nm and emission at 465 nm after 18 hour incubation with SuperPhos, 4-MUP Fluorescence AP Substrate Detection System (Virolabs).

[2] = target: T2, FcγRIIIa-F158 (Pichia pastoris produced) (UniProt P08637 17-208, limits assumed); test: as above
T2 construct: also called FcγRIIIA LF; FcgRIIIA LF
Protocol: as §1

[3] = target: T1, FcγRIIb (Pichia pastoris produced); test: as above; remark: listed apart in the source
Protocol: as §1

[4] = target: T2, FcγRIIIa-F158 (Pichia pastoris produced); test: as above; remark: listed apart in the source
Protocol: as §1

FcγRI (R&D Systems) [5] = target: T3, FcγRI (R&D Systems) (UniProt P12314 16-288); test: ELISA-type plate assay, FcγRI coated, monomeric antibody, detected with AP-conjugated goat anti-human IgG F(ab')2, RFU readout
T3 construct: Bought reagent, coated on the plate at 1 µg/mL; also called Fc gamma receptor I; CD64
Protocol: as §1, with “These dimerized F(ab′)2/antibody complexes were also serially diluted and 100 μL per well were added to the remaining receptor plates and all plates were incubated for one hour at room temperature.” left out

FcγRI (R&D Systems) [6] = target: T3, FcγRI (R&D Systems); test: as above; remark: listed apart in the source
Protocol: as §1, with “These dimerized F(ab′)2/antibody complexes were also serially diluted and 100 μL per well were added to the remaining receptor plates and all plates were incubated for one hour at room temperature.” left out

wild-type human PCSK9 = target: T4, wild-type human PCSK9 (human, UniProt Q8NBP7 31-692, limits assumed); test: SPR (Biacore T100), average KD of the two 1F11 runs
T4 construct: also called PCSK9 antigen
Protocol: The CM5 chip was immobilized on all flowcells with mouse anti-human IgG (Fc specific) according to the Biacore Human Antibody Capture Kit (Cat# BR-1008-39) to ˜7000RU. Anti-PCSK9 antibodies were captured on the chip to ˜500RU followed by analyte injections of wild-type human PCSK9 from 64.1 nM to 2.0 nM. Each flowcell was regenerated between each analyte injection with 3M MgCl for 40 seconds at 10 uL/min. Data was analyzed with Biacore T100 Evaluation Software using the 1:1 binding model using at least 5 point concentration range sensogram.

[7] = target: T5, FcγRIIIa-V158 (Pichia pastoris produced) (UniProt P08637 17-208, limits assumed); test: fold change of the Table 12 affinities
T5 construct: also called FcγRIIIA LV; FcgRIIIA LV
Protocol: as §1

[8] = target: T2, FcγRIIIa-F158 (Pichia pastoris produced); test: fold change of the Table 12 affinities
Protocol: as §1

[9] = target: T5, FcγRIIIa-V158 (Pichia pastoris produced); test: summary of the FcγR ELISAs
Protocol: as §1

[10] = target: T2, FcγRIIIa-F158 (Pichia pastoris produced); test: summary of the FcγR ELISAs
Protocol: as §1

FcγRI (R&D Systems) [11] = target: T3, FcγRI (R&D Systems); test: summary of the FcγR ELISAs
Protocol: as §1

[12] = target: T5, FcγRIIIa-V158 (Pichia pastoris produced); test: ELISA on plate-coated receptor; antibody dimerized with anti-human IgG F(ab')2-AP; ELISA IC50, YGLY23258 (dimer), Table 3 experiment
Protocol: as §1, with “These dimerized F(ab′)2/antibody complexes were also serially diluted and 100 μL per well were added to the remaining receptor plates and all plates were incubated for one hour at room temperature.” left out

[13] = target: T2, FcγRIIIa-F158 (Pichia pastoris produced); test: as above
Protocol: as §1, with “These dimerized F(ab′)2/antibody complexes were also serially diluted and 100 μL per well were added to the remaining receptor plates and all plates were incubated for one hour at room temperature.” left out

[14] = target: T5, FcγRIIIa-V158 (Pichia pastoris produced); test: ELISA on plate-coated receptor; antibody dimerized with anti-human IgG F(ab')2-AP; ELISA IC50, YGLY23258 (dimer), Table 4 experiment
Protocol: as §1, with “These dimerized F(ab′)2/antibody complexes were also serially diluted and 100 μL per well were added to the remaining receptor plates and all plates were incubated for one hour at room temperature.” left out

[15] = target: T2, FcγRIIIa-F158 (Pichia pastoris produced); test: as above
Protocol: as §1, with “These dimerized F(ab′)2/antibody complexes were also serially diluted and 100 μL per well were added to the remaining receptor plates and all plates were incubated for one hour at room temperature.” left out

T3 sequence (P12314 16-288 limits assumed): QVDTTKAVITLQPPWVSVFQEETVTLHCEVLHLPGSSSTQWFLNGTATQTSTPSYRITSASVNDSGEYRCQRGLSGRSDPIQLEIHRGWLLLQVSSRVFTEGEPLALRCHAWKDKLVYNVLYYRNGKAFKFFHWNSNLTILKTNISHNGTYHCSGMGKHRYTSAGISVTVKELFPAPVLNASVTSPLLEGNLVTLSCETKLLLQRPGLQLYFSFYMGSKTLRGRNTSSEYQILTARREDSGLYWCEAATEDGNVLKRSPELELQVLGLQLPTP
T5 sequence (P08637 17-208 F176V limits assumed): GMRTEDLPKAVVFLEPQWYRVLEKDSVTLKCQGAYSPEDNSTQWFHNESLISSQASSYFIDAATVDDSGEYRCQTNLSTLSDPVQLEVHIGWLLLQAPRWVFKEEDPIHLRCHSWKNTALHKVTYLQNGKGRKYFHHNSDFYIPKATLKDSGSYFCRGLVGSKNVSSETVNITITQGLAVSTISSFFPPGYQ
T2 sequence (P08637 17-208 limits assumed): as the sequence (P08637 17-208 F176V limits assumed) above, with V160F counted along it

Binder | EC50 (read off the curve) [1] [µg/mL] | EC50 (read off the curve) [2] [µg/mL] | EC50 (read off the curve) [3] [µg/mL] | EC50 (read off the curve) [4] [µg/mL] | EC50 (read off the curve) (FcγRI (R&D Systems) [5]) [µg/mL] | EC50 (read off the curve) (FcγRI (R&D Systems) [6]) [µg/mL] | Kd (wild-type human PCSK9) [nM] | fold change in affinity vs 1F11 IgG1 GS5.0 [7] [fold] | fold change in affinity vs 1F11 IgG1 GS5.0 [8] [fold] | decreased affinity fold vs wildtype parent antibody produced in GS 5.0 [9] [fold] | decreased affinity fold vs wildtype parent antibody produced in GS 5.0 [10] [fold] | decreased affinity fold vs wildtype parent antibody produced in GS 5.0 (FcγRI (R&D Systems) [11]) [fold] | IC50 [12] [µg/mL] | IC50 [13] [µg/mL] | IC50 [14] [µg/mL] | IC50 [15] [µg/mL]
1F11 wildtype (parent) humanized anti-PCSK9 monoclonal IgG1 antibody (antibody, Produced in glycoengineered Pichia pastoris GFI5.0 (strain YGLY21351); also called 1F11 IgG1 GS5.0; YGLY21351) heavy: not shown light: DIQMTQSPSSLSASVGDRVTITCKASQNVGTNVVWYQQKPGKAPKALIHSASYRYSGVPSRFSGSGSGTDFTLTISSLQPEDFATYYCQQYKTYPYTFGQGTKVEIKRTVAAPSVFIFPPSDEQLKSGTASVVCLLNNFYPREAKVQWKVDNALQSGNSQESVTEQDSKDSTYSLSSTLTLSKADYEKHKVYACEVTHQGLSSPVTKSFNRGEC | ~0.4 | ~0.02 | ~0.1 | ~0.02 | ~0.08 | ~0.08 | 2.8 |  |  |  |  |  |  |  |  | 
1F11 IgG1 F243A/V264A double mutein anti-PCSK9 antibody (antibody, sialylated N-glycans; also called 1F11 DM; YGLY23258) heavy: not shown light: DIQMTQSPSSLSASVGDRVTITCKASQNVGTNVVWYQQKPGKAPKALIHSASYRYSGVPSRFSGSGSGTDFTLTISSLQPEDFATYYCQQYKTYPYTFGQGTKVEIKRTVAAPSVFIFPPSDEQLKSGTASVVCLLNNFYPREAKVQWKVDNALQSGNSQESVTEQDSKDSTYSLSSTLTLSKADYEKHKVYACEVTHQGLSSPVTKSFNRGEC |  |  |  |  |  |  |  | 647 | 12 | 2 to 6 | 8 to 60 | 4 | 0.09 | 0.6 | 0.12 | 0.69
